For 78 sequences, switch fluorescence ratio results are on record in the supplement of paper PMC10126150.

± gives the standard deviation of the averaged measurements.

In the series the test system is ATP. Briefly: switch fluorescence ratio, 500 uM ATP over buffer (Cy3 cluster intensity, sum of 5 cycles each) (fold (ratio)); higher = stronger signal-on switching upon ATP binding; sequences stand for … in TCGTCGGCAGCGTCAGATGTGTATAAGAGACAGTTTTTTTTTTTTTTTTTTTTTTTTT…TC. Conditions: aptamer strand: ATP DNA aptamer (quencher-CACCTGGGGGAGTATTGCGGAGGAAGG + anchor), 100 nM annealed; ATP concentration: 500 uM. The procedure, abridged:
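Exposure to 500 uM ATP lasted 15 min at 22 °C before imaging, and a selection-buffer image was taken beforehand, for Cy3-labelled switching-strand clusters on a modified Illumina MiSeq flow-cell annealed to 100 nM quencher-labelled ATP aptamer. Five buffer/ATP cycles were run with NaOH stripping and re-annealing between them. The fluorescence ratio per cluster is summed target-cycle over summed buffer-cycle Cy3 intensity, averaged per switch-domain sequence. Clusters outside 100-1000 RFU were excluded.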
Regarding ATGGGGGGCC, the switch fluorescence ratio stood at 0.995 ± 0.026. To AGGTTTGTTA belongs 0.987 ± 0.015; to ACCATGGGCC, 1.01 ± 0.018; to ATGGGAAACT, 1.012 ± 0.0074. As for GCGGGGACAA, the switch fluorescence ratio came out at 1.069 ± 0.0083. The value for GAGGGGTGAG was 1.01 ± 0.041; that for CAATATTAGT was 0.996 ± 0.024.

Consider ATAAGACTGT, for which the switch fluorescence ratio is 1.03 ± 0.018. To TTAAGTCCGC belongs 1.17 ± 0.034; to TAAACCTAGC, 1.46 ± 0.062. TGAGCCCTTT: the switch fluorescence ratio turned out to be 1.018 ± 0.0046.

Consider ATACTTAGTG, for which the switch fluorescence ratio was determined as 0.986 ± 0.019. To GCTAAAAAGA belongs 1 ± 0.076; to AACGGGGCTC, 1.04 ± 0.066. To TTGTTGAGGC belongs 1.06 ± 0.1. To TTCCTTCATT belongs 1.04 ± 0.016. As to CGTTTTTGTT, the switch fluorescence ratio is 1 ± 0.025. To GGGGCTTTTC belongs 1.01 ± 0.027.

With TGTTGAGTTG, the switch fluorescence ratio amounted to 0.9749 ± 0.0031. To GGGGGAGCGT belongs 1 ± 0.03; to AAGAAGATCA, 0.975 ± 0.016; to TTCGGCGGTG, 0.98 ± 0.045.

Take TTGGGTGCTT: the switch fluorescence ratio was 1.02 ± 0.041. To CTAAAAGGGG belongs 1.02 ± 0.021; to TAAAGTGATT, 0.988 ± 0.025; to GCGCATTAGC, 1.3 ± 0.061. For the sequence ATGCGTATCC, the switch fluorescence ratio came to 1 ± 0.034. For GGATTTAAAA, the switch fluorescence ratio came to 1.05 ± 0.044.

As to GAAGGCGGGA, the switch fluorescence ratio is 1.03 ± 0.097. With CAGGATGCGT, the switch fluorescence ratio came to 0.9611 ± 0.0076. The value for TAAGGGGACG was 1.02 ± 0.023; that for GGTGGAAATC was 1.09 ± 0.16.

Consider AGGTAGGGTG, for which the switch fluorescence ratio turned out to be 1.04 ± 0.055.

Regarding GCATATGGCT, the switch fluorescence ratio was 1 ± 0.031. With ACGGGTTTTT, the switch fluorescence ratio was 0.999 ± 0.015. To TAGAAATTTC belongs 1.02 ± 0.036; to AATTCGTTGG, 0.993 ± 0.026; to AGTGAATTTT, 0.988 ± 0.064. To CCTTATCCG belongs 1.07 ± 0.068; to TCAGGGGGGG, 1.02 ± 0.022; to TCAAAGGTGT, 1.22 ± 0.14. To AGGTCAGTAG belongs 1 ± 0.024. TAAGCGGGCT: the switch fluorescence ratio was found to be 0.973 ± 0.024.

Turning to TGATGCAGAG, the switch fluorescence ratio is 1.02 ± 0.018. GAACGAGAGG: the switch fluorescence ratio was 1.01 ± 0.012.

For GGGGGGCGAT, the switch fluorescence ratio was 1.03 ± 0.049.

In the case of TGATTTTTCT, the switch fluorescence ratio turned out to be 1 ± 0.013. The value for TTTAGGAAAA was 1 ± 0.029; that for GAGGCATCTC was 1.02 ± 0.025; that for CTTGTTTAAC was 0.993 ± 0.035. The value for TTTCTCGTTT was 1.006 ± 0.0072; that for TTTGATTGTT was 0.97 ± 0.043; that for CGGCCTTACC was 1.334 ± 0.0037. To CGATTCTGAG belongs 1 ± 0.024; to TTATCGCGAC, 1.67 ± 0.82. As for GGTTATTGGG, the switch fluorescence ratio is 0.98 ± 0.075.

Regarding TGGTCGCGAT, the switch fluorescence ratio was determined as 1.53 ± 0.73.

As for GGGGGCAGGT, the switch fluorescence ratio was 1.03 ± 0.039. The value for TAGCGGGAGG was 1.02 ± 0.024. As for GCAATGGGAA, the switch fluorescence ratio turned out to be 1.1 ± 0.019.

As for TTGTTGGCGG, the switch fluorescence ratio worked out at 0.994 ± 0.025. The value for AGGACGTCCA was 0.989 ± 0.02. Turning to TTATTGTTAG, the switch fluorescence ratio was determined as 0.9784 ± 0.0027. AAGAAGGCGG: the switch fluorescence ratio was 0.9845 ± 0.0069. To GTTTATATAT belongs 1.03 ± 0.035.

Consider TTGGTGAGAG, for which the switch fluorescence ratio was found to be 0.997 ± 0.019. Turning to TTTTCCTGGG, the switch fluorescence ratio stood at 1.03 ± 0.063. To AATGAAGTGT belongs 0.996 ± 0.012; to GCTTCGGCCT, 1.02 ± 0.058.

In the case of AGTTTTTAAA, the switch fluorescence ratio was determined as 1.027 ± 0.0039. The value for ACTAAGAATT was 1.02 ± 0.013; that for TGTTTGGCGG was 0.966 ± 0.02; that for GTGTAAGTA was 0.9702 ± 0.0042. To TTATTGGAAT belongs 1 ± 0.063; to CGGGGGGACA, 0.968 ± 0.041. For TAAATGAATT, the switch fluorescence ratio is 1.05 ± 0.096. For GCTGGAGCCA, the switch fluorescence ratio turned out to be 1.03 ± 0.019.

As to GTAGGCATGG, the switch fluorescence ratio worked out at 1 ± 0.029.
